Experimental data: the Immune Epitope Database (IEDB)

Legend:
[1] = target: HLA-B*44:02; assay: IEDB peptide-MHC binding, purified MHC/competitive/radioactivity; filed as Kd, often an IC50 or EC50 that approximates it; ≥ and ≤ were set here for values at or beyond the usual limits of such assays
[2] = target: HLA-B*44:03; assay: as above
[3] = target: HLA-A*23:01; assay: as above
[4] = target: HLA-A*24:02; assay: as above
[5] = target: HLA-A*01:01; assay: as above
[6] = target: HLA-A*26:01; assay: as above
[7] = target: HLA-A*29:02; assay: as above
[8] = target: HLA-A*30:02; assay: as above
[9] = target: HLA-A*26:01; assay: IEDB peptide-MHC binding, purified MHC/competitive/fluorescence; filed as Kd, often an IC50 or EC50 that approximates it; ≥ and ≤ were set here for values at or beyond the usual limits of such assays
[10] = target: HLA-A*30:01; assay: IEDB peptide-MHC binding, purified MHC/competitive/radioactivity; filed as Kd, often an IC50 or EC50 that approximates it; ≥ and ≤ were set here for values at or beyond the usual limits of such assays; details: source organism: Dengue virus 2 Jamaica/1409/1983
[11] = target: HLA-B*08:01; assay: as above
[12] = target: HLA-A*32:01; assay: as above
[13] = target: HLA-A*02:01; assay: IEDB peptide-MHC binding, purified MHC/competitive/fluorescence; filed as Kd, often an IC50 or EC50 that approximates it; ≥ and ≤ were set here for values at or beyond the usual limits of such assays; details: source organism: Yersinia pestis Antiqua
[14] = target: HLA-A*03:01; assay: IEDB peptide-MHC binding, purified MHC/direct/fluorescence; filed as Kd, often an IC50 or EC50 that approximates it; ≥ and ≤ were set here for values at or beyond the usual limits of such assays
[15] = target: HLA-A*31:01; assay: as above
[16] = target: HLA-B*27:05; assay: as above; details: source organism: Mammarenavirus juninense
[17] = target: HLA-A*11:01; assay: IEDB peptide-MHC binding, purified MHC/competitive/radioactivity; filed as Kd, often an IC50 or EC50 that approximates it; ≥ and ≤ were set here for values at or beyond the usual limits of such assays
[18] = target: HLA-A*03:01; assay: as above; details: source organism: Triticum aestivum
[19] = target: HLA-A*33:01; assay: as above; details: source organism: Triticum aestivum
[20] = target: HLA-A*31:01; assay: as above; details: source organism: Triticum aestivum
[21] = target: HLA-A*68:01; assay: as above; details: source organism: Triticum aestivum
[22] = target: HLA-A*02:01; assay: IEDB peptide-MHC binding, purified MHC/direct/fluorescence; filed as Kd, often an IC50 or EC50 that approximates it; ≥ and ≤ were set here for values at or beyond the usual limits of such assays; details: source organism: Homo sapiens
[23] = target: HLA-A*11:01; assay: as above; details: source organism: Homo sapiens
[24] = source organism: Dengue virus 3 Martinique/1243/1999
[25] = source organism: Dengue virus 1 Brazil/97-11/1997
[26] = source organism: Lymphocytic choriomeningitis virus (strain Armstrong)
[27] = source organism: Mammarenavirus juninense
[28] = source organism: Dengue virus 4 Philippines/H241/1956
[29] = source organism: Dengue virus 2 Jamaica/1409/1983
[30] = source organism: Mammarenavirus guanaritoense
[31] = source organism: SARS coronavirus Tor2
[32] = source organism: Vaccinia virus WR
[33] = source organism: Mammarenavirus lassaense
[34] = source organism: Dengue virus 2 Peru/IQT2913/1996
[35] = source organism: Vaccinia virus Copenhagen
[36] = source organism: Mammarenavirus brazilense
[37] = source organism: Dengue virus 1 Singapore/S275/1990
[38] = source organism: Francisella tularensis subsp. holarctica LVS
[39] = source organism: Triticum aestivum

AEMEEALKG
Kd [1, 24]: 0.0297 µM
Kd [2, 24]: 0.00534 µM

AEPDDVDCW
Kd [1, 25]: 0.0374 µM
Kd [2, 25]: 0.236 µM

AFKVPGVKTV
Kd [3, 26]: ≥ 70 µM
Kd [4, 26]: ≥ 70.3 µM
Kd [5, 26]: ≥ 70.4 µM
Kd [6, 26]: ≥ 69.7 µM
Kd [7, 26]: 6.96 µM
Kd [8, 26]: 6.59 µM

AGEKALKLSW
Kd [1, 25]: 0.576 µM

AGSKYIHCF
Kd [3, 27]: ≥ 21.4 µM
Kd [4, 27]: 5.37 µM
Kd [5, 27]: 0.808 µM
Kd [6, 27]: ≥ 77.9 µM
Kd [7, 27]: ≥ 78.9 µM
Kd [8, 27]: 6.5 µM

AWRTIMAVLF
Kd [3, 28]: 0.0515 µM
Kd [4, 28]: 0.0221 µM

CIAIGIITLY
Kd [5, 24]: 7.45 µM
Kd [6, 24]: 0.121 µM
Kd [8, 24]: ≥ 69.7 µM

CYSQVNPLTL
Kd [3, 25]: 0.189 µM
Kd [4, 25]: 0.144 µM

DGLSSVGGY
Kd ([9]; source organism: Azotobacter vinelandii DJ): ≥ 20 µM

DTIETLMLLA
Kd [6, 25]: 0.228 µM

DTITYKCPLL
Kd [6, 29]: 2.1 µM
Kd [10]: 1.14 µM

EALKGLPIRY
Kd [6, 24]: 10.1 µM

EFFDCFKYIL
Kd [3, 30]: 1.69 µM
Kd [4, 30]: 8.7 µM
Kd [7, 30]: 0.645 µM

EIDETCEHEY
Kd [3, 31]: ≥ 70 µM
Kd [4, 31]: ≥ 70.3 µM
Kd [5, 31]: 0.197 µM
Kd [6, 31]: 0.492 µM
Kd [7, 31]: 0.656 µM
Kd [8, 31]: 1.06 µM

EKMETLQRKY
Kd [6, 29]: ≥ 20.1 µM

EKWKKKLNQL
Kd [11, 24]: 0.596 µM

ELSQSMFHY
Kd ([9]; source organism: Bacillus cereus G9241): 0.25 µM

EPGSSFKFL
Kd [11, 32]: 1.88 µM

ETNYYIHPI
Kd [12, 32]: 0.368 µM

FFLPIFSEF
Kd [3, 30]: 0.000198 µM
Kd [4, 30]: 0.0324 µM
Kd [7, 30]: 0.000921 µM

FNATKFPSVY
Kd [3, 31]: ≥ 70 µM
Kd [4, 31]: ≥ 70.3 µM
Kd [5, 31]: ≥ 56.3 µM
Kd [6, 31]: ≥ 24.5 µM
Kd [7, 31]: 3.04 µM
Kd [8, 31]: 1.21 µM

FPRYHSIEL
Kd [11, 32]: 0.000492 µM

FYGGWHNML
Kd [3, 31]: 5.18 µM
Kd [4, 31]: ≥ 27.9 µM
Kd [5, 31]: ≥ 78.1 µM
Kd [6, 31]: ≥ 77.9 µM
Kd [7, 31]: 15.5 µM
Kd [8, 31]: ≥ 100 µM

GPITTLWEGS
Kd [12, 24]: 2.87 µM

GSVGFNIDY
Kd [3, 31]: ≥ 77.8 µM
Kd [4, 31]: ≥ 77.6 µM
Kd [5, 31]: 5.64 µM
Kd [6, 31]: 10.2 µM
Kd [7, 31]: 0.177 µM
Kd [8, 31]: 1.66 µM

HAQRVESWIL
Kd [11, 28]: 0.355 µM

HYLCLNCLS
Kd [5, 33]: 3.73 µM
Kd [6, 33]: ≥ 77.9 µM
Kd [8, 33]: 14.2 µM

ISGLFPVSI
Kd [12, 34]: 1.26 µM

ITEMGRLPTF
Kd [5, 29]: 17.5 µM
Kd [10]: 9.68 µM

KFLTNKLLL
Kd [3, 31]: 0.379 µM
Kd [4, 31]: 1.09 µM
Kd [5, 31]: ≥ 78.1 µM
Kd [6, 31]: ≥ 61 µM
Kd [7, 31]: ≥ 24.2 µM
Kd [8, 31]: ≥ 27.3 µM

KRRLRTLIL
Kd [11, 24]: 1 µM

KTKNNDWDY
Kd [5, 25]: 0.595 µM
Kd [8, 25]: 0.015 µM

LEENMDVEIW
Kd [1, 25]: 0.269 µM
Kd [2, 25]: 0.126 µM

LFVTIYSHL
Kd [3, 31]: 0.00922 µM
Kd [4, 31]: 0.132 µM
Kd [5, 31]: 3.76 µM
Kd [6, 31]: 1.1 µM
Kd [7, 31]: 1.42 µM
Kd [8, 31]: ≥ 47.4 µM

LIIDEIGYL
Kd ([9]; source organism: Yersinia pestis Antiqua): 0.0044 µM
Kd [13]: 0.0046 µM

LMYNLLTII
Kd [12, 35]: 0.0302 µM

LNYVIHKLF
Kd [3, 36]: 0.973 µM
Kd [4, 36]: 10.5 µM
Kd [7, 36]: 12.8 µM

LRAQNALDNL
Kd [11, 25]: 1.36 µM

LRKLTSRENL
Kd [11, 24]: 4.95 µM

LTIGVNYDI
Kd [12, 35]: 0.525 µM

LTNSVIIMAY
Kd [3, 31]: ≥ 70 µM
Kd [4, 31]: ≥ 70.3 µM
Kd [5, 31]: 0.0981 µM
Kd [6, 31]: 2 µM
Kd [7, 31]: 0.00807 µM
Kd [8, 31]: 0.0491 µM

LTSRENLLL
Kd [5, 24]: 0.418 µM

LWATLLSLTF
Kd [3, 37]: 0.0253 µM
Kd [4, 37]: 0.193 µM

MADQAMTQMY
Kd [3, 31]: ≥ 70 µM
Kd [4, 31]: ≥ 70.3 µM
Kd [5, 31]: 0.0184 µM
Kd [6, 31]: 2.83 µM
Kd [7, 31]: 0.00975 µM
Kd [8, 31]: 0.127 µM

MAGPLVAGGL
Kd [11, 24]: 1.07 µM

MFMMIFHFV
Kd [14, 38]: ≥ 20 µM
Kd [15, 38]: 12 µM

MIMYLVLGI
Kd [12, 32]: 0.0979 µM

NARLKPLDI
Kd [11, 32]: 0.000813 µM

NEELITEQM
Kd [1, 28]: 0.281 µM

NRRRRTAGM
Kd [11, 34]: 0.0989 µM

NTNPIQLSSY
Kd [3, 31]: ≥ 70 µM
Kd [4, 31]: ≥ 70.3 µM
Kd [5, 31]: 0.105 µM
Kd [6, 31]: 0.344 µM
Kd [7, 31]: 0.966 µM
Kd [8, 31]: 0.0742 µM

NVHTWTEQY
Kd [5, 29]: 6.04 µM

NWASVKKDLI
Kd [3, 24]: 0.287 µM

NYTQHTSSM
Kd [3, 31]: ≥ 81.7 µM
Kd [4, 31]: ≥ 91.8 µM
Kd [5, 31]: ≥ 57 µM
Kd [6, 31]: 16.3 µM
Kd [7, 31]: ≥ 45.2 µM
Kd [8, 31]: ≥ 81.1 µM

PSVEVKLPDY
Kd [5, 28]: 7.51 µM
Kd [8, 28]: 0.162 µM

REDLWCGSLI
Kd [1, 28]: 0.256 µM
Kd [2, 28]: 0.401 µM

RFFLPIFSEF
Kd [3, 30]: 0.000232 µM
Kd [4, 30]: 0.0102 µM
Kd [7, 30]: 0.00103 µM

RFLEFEALGF
Kd [3, 28]: 0.00144 µM

RGEDGCWYGM
Kd [12, 29]: 11 µM

RKDIQQWEPS
Kd [12, 29]: 3.87 µM

RLANNKVTI
Kd [12, 32]: 0.00154 µM

RLINNRVLF
Kd [12, 32]: 0.00567 µM

RRDLKLVDV
Kd [16]: ≥ 20 µM

RSFEIINVL
Kd [12, 32]: 0.0029 µM

SALTLHWFRK
Kd [17, 28]: 0.0184 µM
Kd [12, 28]: 1.94 µM

SDMQKFTIL
Kd [11, 32]: 0.0409 µM

SEMAEALKG
Kd [1, 25]: 0.0145 µM

SQHQHLAIM
Kd [11, 32]: 0.142 µM

SSQVLQQSTY
Kd [3, 39]: ≥ 41.5 µM
Kd [4, 39]: ≥ 42.3 µM
Kd [6, 39]: 4.63 µM
Kd [18]: 13.5 µM
Kd [19]: 19 µM
Kd [7, 39]: 2.99 µM
Kd [17, 39]: 2.54 µM
Kd [8, 39]: 0.588 µM
Kd [20]: 9 µM
Kd [21]: 9.51 µM

SYLRKFSAL
Kd [11, 32]: 0.00598 µM

TDSPETHHY
Kd [3, 30]: ≥ 77.7 µM
Kd [4, 30]: ≥ 77.5 µM
Kd [5, 30]: 16.8 µM
Kd [6, 30]: ≥ 77.9 µM
Kd [7, 30]: ≥ 78.9 µM
Kd [8, 30]: 9.32 µM

TNEVHTWTEQ
Kd [12, 25]: 5.36 µM

TPMLRHTIE
Kd [11, 24]: 0.00336 µM

TSKKRSWPLN
Kd [10]: 4.53 µM
Kd [12, 29]: ≥ 38.6 µM

TWAFCEVLTL
Kd [3, 28]: 0.237 µM
Kd [4, 28]: 2.23 µM

TYQNKVVKVL
Kd [11, 28]: 0.155 µM

VEGVSGGAW
Kd [1, 28]: 0.151 µM
Kd [2, 28]: 0.114 µM

VEGVSGGSW
Kd [1, 29]: 0.22 µM
Kd [2, 29]: 0.111 µM

VIWILIVAI
Kd [12, 32]: 0.198 µM

VLLSKRPSL
Kd [11, 32]: 0.078 µM

VTDKEKPVNI
Kd [5, 25]: 15.5 µM

WHLGKLEMDF
Kd [3, 29]: 1.88 µM

YLGSWATGK
Kd ([14]; source organism: Homo sapiens): 0.257 µM
Kd [22]: 15.8 µM
Kd [23]: 1.44 µM
Kd ([15]; source organism: Homo sapiens): 1.96 µM

YWVSCGTGNI
Kd [3, 25]: 0.165 µM

YYMATLKNV
Kd [3, 28]: 0.319 µM
Kd [4, 28]: 0.0742 µM
